This note sets out measurements from FireProtDB (doi:10.1021/bi702211j).

Several values for one entry are separate records, joined by “and”; a condition that tells them apart may be missing. Equal entries are not always repeated.

For this series the following is noted: Saccharomyces cerevisiae (strain ATCC 204508 / S288c), pH 7.5, 20 °C, Urea, HEPES 10 mM, NaCl 200 mM, reversible: Yes, whole UniProt chain shown.

B1: Eukaryotic translation initiation factor 2 subunit alpha wild type, P20459 (protein)
chain: MSTSHCRFYENKYPEIDDIVMVNVQQIAEMGAYVKLLEYDNIEGMILLSELSRRRIRSIQKLIRVGKNDVAVVLRVDKEKGYIDLSKRRVSSEDIIKCEEKYQKSKTVHSILRYCAEKFQIPLEELYKTIAWPLSRKFGHAYEAFKLSIIDETVWEGIEPPSKDVLDELKNYISKRLTPQAVKIRADVEVSCFSYEGIDAIKDALKSAEDMSTEQMQVKVKLVAAPLYVLTTQALDKQKGIEQLESAIEKITEVITKYGGVCNITMPPKAVTATEDAELQALLESKELDNRSDSEDDEDESDDE
Turning to B1, the denaturant m value is 0.88 kcal/mol/M and 0.98 kcal/mol/M (CD); 1.84 kcal/mol/M and 2.19 kcal/mol/M (Fluorescence). In addition, the unfolding free energy reads like this: (CD) 2.45 kcal/mol and 2.95 kcal/mol and 4.61 kcal/mol; (Fluorescence) 5.17 kcal/mol and 6.66 kcal/mol and 5.45 kcal/mol.
